# According to paper PMC6528580, “Relative catalytic efficiencies and transcript levels of three D‐ and two L‐lactate dehydrogenases for optically pure D‐lactate production in Sporolactobacillus inulinus” (MicrobiologyOpen, 2018):
# Substrate: CC(=O)C(=O)O
# Test: purified protein
# Assay type: biochemical, Sporolactobacillus inulinus
# Conditions: 0.4 mM NADH, pyruvate 0.05-40 mM
protein,measurement,setting,value
"D-LDH1 (Sporolactobacillus inulinus CASD) (protein, N-terminal His-tag (pET-28a) removed by enterokinase; E. coli BL21(DE3)) MKLFMYGVQAHEKEIIRAWADAHAIDIETTADFLSEKTVDRAKDYDGICIQQPVPLGAAKLYATLKSYGIKQIATRTAGYDMIDLQEAEKNELIVTNVPAYSPYAVAELAVTQAMQLVRHVSQFQQRIAANDFRWDGLMSREIRSMTVGIVGTGRIGATAAQLFKGLGAKIIGFDQYPNDRLKDLIEYRSSLEDVLKEADIVSLHTPLFDSTRHMINARTLKLMKKSAYLINIARGALIDTEALIDALESGEIAGAALDTFENETVINKNLSGQSLNDPLLEKLIAMDQVLLTPHVGFFTETAIRNIVEGALNSVLEVLQTGTSKSRVKPAVTQ",Km,"pH 6.0, 35 °C",0.47 ± 0.04 mM
same,Vmax,"pH 6.0, 35 °C",62.7 µmol/min/mg
same,kcat,"pH 6.0, 35 °C",75.8 ± 0.3 s⁻¹
same,kcat/Km,"pH 6.0, 35 °C",161000 ± 6000 M⁻¹ s⁻¹
"L-LDH2 (Sporolactobacillus inulinus CASD) (protein, N-terminal His-tag (pET-28a) removed by enterokinase; E. coli BL21(DE3)) MRKYAIIGLGHVGAAVAFQLVSRGIADELILIDTNEGLARAEQLDLQDMQGRIDTRTIIKINDYSELADTDILFITAGNILAYKEKQAQGNRWAEFEYTKDIVQDIAPKVKASGFHGVAIDTMNPCDAITQYFQENTGLSRQQVFATGTFLDTARMQKVVSDQFDCDPKNVSGYVYGEHGESQFTAWSTVRVNGLDITELAKERNLNLDDLEEAARRGGWEVYKGKGYTSWAISTCAVKLSQAVLSDAHAACICSCYSEKYGTYVGQPAIIGKNGIEEVLTLPLTTEEEAKFKHSADTIKEKFQTFEKQTN",Km,"pH 7.0, 40 °C",6.8 ± 0.19 mM
same,Vmax,"pH 7.0, 40 °C",1.9 µmol/min/mg
same,kcat,"pH 7.0, 40 °C",2.3 ± 0.1 s⁻¹
same,kcat/Km,"pH 7.0, 40 °C",300 ± 100 M⁻¹ s⁻¹
"L-LDH1 (Sporolactobacillus inulinus CASD) (protein, N-terminal His-tag (pET-28a) removed by enterokinase; E. coli BL21(DE3)) MSETVRRVGVVGIGNVGKAAASAVLHENIADELYISDIDSERAKGEAWDFADSIELTPSRTRVLEVPLEGLAVCDVILVAVTERSQIPTQSRLELLKGTAAITYDIVPKLRKAGFKGTYVIATNPCDIITYLFYKLSGLPKNHVIGTGTALDSMRLRRQLSQVIGDVDPRSINAFMIGEHGDSQIAAWSQATVGGQPLDQFEEDNVDEFGPIDRDQVEDAARHFGWEIHTRKGNTQFGIGNALAFFAKSILNDARVVTAASVIQNGEYGQNDLAIGVPIILGRNGVERIIKFRLSEKEQEGFNGSAELIKGYIKQTLEEHEETTAN",Km,"pH 7.0, 45 °C",4.1 ± 0.12 mM
same,Vmax,"pH 7.0, 45 °C",5.2 µmol/min/mg
same,kcat,"pH 7.0, 45 °C",5.9 ± 0.1 s⁻¹
same,kcat/Km,"pH 7.0, 45 °C",1400 ± 100 M⁻¹ s⁻¹
"D-LDH3 (Sporolactobacillus inulinus CASD) (protein, N-terminal His-tag (pET-28a) removed by enterokinase; E. coli BL21(DE3); homodimer hypothesised from identical DLDH744) MKIIMFSVRDDEEAAIREWEKKTGVQVDINRLELDAETAQLTKGYDGIVIQQRSHISNPAVYETLQKNGLRQLTSRTAGYDMIDLEQASERGLVVTNVPAYSPNSVAELALTQTMRLIRNLPLFDARGAEQDFRWAGLMAREIRSLTVGIIGAGRIGGTVARLFKALGATVIANDIVERVELKDIVTYVSKEELLQAADVVTLHVPLMDSTTQLIDADALALMKNDAVLINASRGPVVDTDALIAALQNKQIAGAALDTLNGEEHFFNQDLCGKELPSEQLKVLRTLPNVLITPHIGFYTNKAVQNMVEISLNDVLAILKTGTSEHQLNKVAVEN",Km,"pH 5.5, 30 °C",3.1 ± 0.08 mM
same,Vmax,"pH 5.5, 30 °C",9.2 µmol/min/mg
same,kcat,"pH 5.5, 30 °C",10.7 ± 0.2 s⁻¹
same,kcat/Km,"pH 5.5, 30 °C",3500 ± 200 M⁻¹ s⁻¹
"D-LDH2 (Sporolactobacillus inulinus CASD) (protein, N-terminal His-tag (pET-28a) removed by enterokinase; E. coli BL21(DE3)) MAFKIIAYGVEPYEEHLYSELNKYGFELTLVNDLLTADNGDLAKGHDGVLLFVNCLADRANLEKFNDYGINYVFTRTAGFNHIDLQAAADLGIKVARVPAYSPNAIAELAVYLGTSLLRHTVYTTARTSKLNFTVTETNFSHEVHKIKVGIVGTGHIGCVEAELYKGLGAKLLGYDIFQSDFAKKLVEFKELDELLAESDIVSLHLPYFPGKNENFVGEDFIGKMKDGAILINTARGELVDEAAVAKAIKSGKLEGFGADVLTDEARFFGKDFSDGTEFPDATIKELIELYPKVLITPHVAAMTDVAVSNMISTSYDNFNAAIKGESLGRAEVELPEPAKK",Km,"pH 7.5, 30 °C",1.4 ± 0.09 mM
same,Vmax,"pH 7.5, 30 °C",38.1 µmol/min/mg
same,kcat,"pH 7.5, 30 °C",44.7 ± 0.3 s⁻¹
same,kcat/Km,"pH 7.5, 30 °C",32000 ± 2000 M⁻¹ s⁻¹
